Results on two proteins are retold here after PMC4051505, “Crystal structure of human CRMP-4: correction of intensities for lattice-translocation disorder” (Acta Crystallographica Section D: Biological Crystallography, 2014).

Data set [1] deals with the molecule itself. The data set can be described thus: crystal structure; CRMP-4 (1-570) crystal form A, space group P21, twinned; 15%(w/v) PEG 6000, 100 mM Na HEPES pH 7.5, 100 mM KCl; protein 15 mg/ml; data at 100 K.
Data set [2] concerns the molecule itself. The experiment in a line: crystal structure; CRMP-4 ΔC (13-490), space group P21; 30%(w/v) PEG 3350, 100 mM sodium tartrate, 100 mM bis-tris propane pH 6.5; protein 18 mg/ml; data at 100 K.

B1: human CRMP-4 (collapsin response mediator protein 4), full-length, residues 1-570 (natural protein)
chain: not shown
notes: CRMP-4 (DPYSL3), human, residues 1-570 of NP_001378.1; only residues 12-496/497 (crystal form A) or 12-499 (form B) are resolved in the electron density; The vector pNIC28-Bsa4 extends the coding region by 23 N-terminal residues (hexahistidine tag and TEV site); The tag was deliberately not cleaved for the full-length protein; Homotetramer in both crystal forms and in solution; also called …
Broadly, the stoichiometry N is the number of molecules, sites or subunits per partner or assembly. Take B1: in data set [1], the “stoichiometry N” value came to 4.

B2: truncated human CRMP-4 (CRMP-4 ΔC), residues 13-490 (domain or fragment)
chain: not shown
notes: CRMP-4 (DPYSL3), human, residues 13-490 of NP_001378.1; The His tag was removed with TEV protease; A serine from the TEV cleavage site is visible in chains C and D of the structure; Judging from the primer, Ser-Met probably remains before residue 13; Tetramer in the crystal, lower oligomers in solution; also called CRMP-4 ΔC (13-490); source: E. coli BL21(DE3)pLysS, purified (Ni-NTA, TEV …)
In the case of B2, the “stoichiometry N” value in data set [2] is 4.
